T1: OX40 chimera 1548: human OX40 with mouse module 3 and domains 4A and 4B (aa 108-167), on FreeStyle 293-F cells (human; mouse, UniProt P47741 104-165)
T1 construct: domain: module 3, 4A and 4B; Limits derived as for 1544
T1 sequence: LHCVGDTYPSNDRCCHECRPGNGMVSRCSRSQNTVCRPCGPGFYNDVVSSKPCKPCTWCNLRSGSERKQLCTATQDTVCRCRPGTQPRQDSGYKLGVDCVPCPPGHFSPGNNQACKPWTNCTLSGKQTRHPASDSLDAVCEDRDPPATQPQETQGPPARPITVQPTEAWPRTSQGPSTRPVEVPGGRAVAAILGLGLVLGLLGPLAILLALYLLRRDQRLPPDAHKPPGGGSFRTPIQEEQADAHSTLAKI

T2: murine OX40 (murine, UniProt P47741 20-211, limits assumed)
T2 sequence (looked up): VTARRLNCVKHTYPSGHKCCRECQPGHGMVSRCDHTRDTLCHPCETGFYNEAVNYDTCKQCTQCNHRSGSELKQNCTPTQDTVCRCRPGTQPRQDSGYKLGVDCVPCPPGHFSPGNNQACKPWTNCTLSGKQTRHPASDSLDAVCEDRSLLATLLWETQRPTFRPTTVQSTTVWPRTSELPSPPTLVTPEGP

B1: CD86 mutant 1038 (ligand)
chain: APLKIQAYFNETADLPCQFANSQNLSLSELVVFWQDQENLVLNEVYLGKEKFDSVDSKYMGRTSFDSDSWTLRLHNLQIKDKGIYQCIIHHKKPTGMVKIHEMNSELSVLA
notes: Variant of the CD86 extracellular domain
B2: CD86 mutant 1045 (ligand)
chain: B1 chain with S26T, I84L, M97L
notes: as for B1
B3: CD86 mutant 1047 (ligand)
chain: B1 chain with M97L
notes: as for B1
B4: CD86 mutant 1044 (ligand)
chain: B1 chain with S26T, D56S, V98I, N104S
notes: as for B1
B5: CD86 mutant 1039 (ligand)
chain: B1 chain with D56S, T95S, E102Q, N104D
notes: as for B1
B6: CD86 mutant 1043 (ligand)
chain: B1 chain with V98I
notes: as for B1
B7: CD86 mutant 1041 (ligand)
chain: B1 chain with F9L, M97L
notes: as for B1
B8: CD86 mutant 1046 (ligand)
chain: B1 chain with L25Q, K80E, T95S, E102Q, N104D
notes: as for B1
B9: CD86 mutant 1042 (ligand)
chain: B1 chain with K51I, D56S, T95S, E102Q, N104D
notes: as for B1
B10: CD86 mutant 910 (ligand)
chain: LKIQAYFNETADLPCQFANSQNQSLSELVVFWQDQENLVLNEVYLGKEKFDSVDSKYMGRTSFDSDSWTLRLHNLQIKDKGIYQCIIHHKKPTGMVKIHEMNSELSVLA
notes: as for B1
B11: CD86 mutant 900 (ligand)
chain: B10 chain with I86V, T93S, M95L
notes: as for B1
B12: CD86 mutant 906 (ligand)
chain: B10 chain with F7I, Q23L, K49R, I82F, M95L
notes: as for B1
B13: CD86 mutant 904 (ligand)
chain: B10 chain with V29I, K49R, S52A, T93S, E100Q, N102D
notes: as for B1
B14: CD86 mutant 901 (ligand)
chain: B10 chain with Q23L, S24T, D54H, I86V, V96I, A109T
notes: as for B1
B15: CD86 mutant 907 (ligand)
chain: B10 chain with D54H, I82L, V96I
notes: as for B1
B16: CD86 mutant 908 (ligand)
chain: B10 chain with D54H
notes: as for B1
B17: human wild-type CD86 (monomeric soluble extracellular domain) (ligand)
chain: B1 chain with L25Q, D56H, I84L, V98I, K99R, E102Q
notes: also called wild type protein
B18: CD86 mutant H79A (Peach et al.) (ligand)
chain: B1 chain with L25Q, D56A, I84L, V98I, K99R, E102Q
notes: also called Prior Art
B19: anti-OX40 antibody 1490/1135 (antibody, V domains shown)
VH: EVQLLESGGGLVQPGGSLRLSCAASGFTFSSYAMSWVRQAPGKGLEWVSGISYYGGYTYYADSVKGRFTISRDNSKNTLYLQMNSLRAEDTAVYYCARYYPHHYIDYWGQGTLVTVSS
VL: not shown
notes: Tested as IgG

Here are results for 19 molecules from patent US20210238298A1 (ALLIGATOR BIOSCIENCE, published 2021).

Positions count from the first letter of the chain named. Names may count otherwise.

T6 sequence (Q07011 24-186 limits assumed): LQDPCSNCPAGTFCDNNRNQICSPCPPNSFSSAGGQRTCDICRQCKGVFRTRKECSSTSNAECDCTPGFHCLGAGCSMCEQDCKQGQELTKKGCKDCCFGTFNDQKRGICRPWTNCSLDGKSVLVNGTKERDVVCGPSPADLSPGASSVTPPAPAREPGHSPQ

The first assay concerns the target T3, soluble murine CTLA-4 (R&D systems) (murine, UniProt P09793 36-162).
T3 construct: Bought
Nature of the assay: not described. The procedure:
In brief, 96-well flat bottom plate high binding plates (Greiner #655074) were coated with human CTLA-4 (Fitzgerald) incubating overnight at 4° C.
The sample (exemplary CD86 mutant) was pre-incubated at room temperature for 1 hour with soluble biotinylated human CTLA4 (Fitzgerald #30R-CD152) or soluble murine CTLA-4 (R&D systems) at different concentrations (serial dilutions ¼ from 30000 to 0.3 ng/ml).
The mixture was then added to the blocked wells in the ELISA plate. Detection was performed with Streptavidin-HRP (Pierce, #21126) and the plates were subsequently developed using SuperSignal Pico Chemiluminescent substrate (Thermo Scientific, #37069) and detected with Envision reader (Perkin Elmer).
In the case of B1, the binding result was “binds”.

In the case of B2, the binding result was “binds”.

Regarding B3, the binding result is reported as “binds”.

For B4, the binding result is “binds”.

Take B5: the binding result is “binds”.

As to B6, the binding result is “binds”.

For the molecule B7, the binding result is given as “binds”.

In the case of B8, the binding result is recorded as “binds”.

Regarding B9, the binding result is given as “binds”.

For B10, the binding result is reported as “binds”.

For the molecule B11, the binding result is “binds”.

Consider B12, for which the binding result was “binds”.

In the case of B13, the binding result is given as “binds”.

Consider B14, for which the binding result is reported as “binds”.

Consider B15, for which the binding result is given as “binds”.

For B16, the binding result is on record as “binds”.

The target of a further assay is T4, CTLA4-Fc (Fitzgerald, #30R-CD152) (human, UniProt P16410 38-152).
T4 construct: Bought; also called human CTLA-4 (Fitzgerald); biotinylated-CTLA4; not shown: Fc part of the bought fusion, not described
T4 sequence (P16410 38-152 limits assumed): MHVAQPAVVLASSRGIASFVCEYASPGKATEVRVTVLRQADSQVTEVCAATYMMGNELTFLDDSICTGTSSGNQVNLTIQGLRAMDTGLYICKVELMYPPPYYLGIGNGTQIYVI
Nature of the assay: SPR (Biacore), immobilised CTLA4-Fc. The procedure:
(§1) Either CTLA4-Fc (Fitzgerald, #30R-CD152) or CD28-Fc (R&D Systems, 342-CD) was immobilized to the Biacore™ sensor chip, CM5, using conventional amine coupling. The CD86 mutant molecules and controls (serially diluted ½ 100-1.5 nM) were analyzed for binding in HBS-P (GE, BR-1003-68) at a flow rate of […]. The association was followed for 3 minutes and the dissociation for 10 minutes. Regeneration was performed twice using 5 mM NaOH for 30 seconds. The kinetic parameters and the affinity constants were calculated using BIAevaluation 4.1 software (Table 1.3).
(In general: In SPR one partner is held on a chip, and binding of the other changes the refractive index at the surface.)
The molecule B17 returned a Kd of 50 nM, a koff of 0.023 s⁻¹ and a kon of 460000 M⁻¹ s⁻¹.

Regarding B1, the Kd turned out to be 12 nM, the koff was found to be 0.012 s⁻¹ and the kon came to 1e+06 M⁻¹ s⁻¹.

B2 displayed a Kd of 9 nM, a koff of 0.0083 s⁻¹ and a kon of 940000 M⁻¹ s⁻¹.

B3 returned a Kd of 10 nM, a koff of 0.0084 s⁻¹ and a kon of 850000 M⁻¹ s⁻¹.

The molecule B4 had a Kd of 8 nM, a koff of 0.0094 s⁻¹ and a kon of 1.1e+06 M⁻¹ s⁻¹.

On to B5, for which the Kd is 8 nM, the koff is 0.0085 s⁻¹ and the kon amounted to 1e+06 M⁻¹ s⁻¹.

B6 displayed a Kd of 10 nM, a koff of 0.011 s⁻¹ and a kon of 1.1e+06 M⁻¹ s⁻¹.

Turning to B7, binding was characterised by a dissociation constant (Kd) of 12 nM, the koff stood at 0.0084 s⁻¹ and the kon is 700000 M⁻¹ s⁻¹.

On to B8, for which the Kd was determined as 6 nM, the koff stood at 0.008 s⁻¹ and the kon is 1.4e+06 M⁻¹ s⁻¹.

As for B9, binding was characterised by a dissociation constant (Kd) of 25 nM, the koff was 0.011 s⁻¹ and the kon stood at 440000 M⁻¹ s⁻¹.

Regarding B18, the Kd was determined as 63 nM, the koff came to 0.022 s⁻¹ and the kon was 340000 M⁻¹ s⁻¹.

The next assay deals with T4, CTLA4-Fc (Fitzgerald, #30R-CD152). The experiment in a line: SPR on immobilised CTLA4-Fc and CD28-Fc. The procedure: as §1
On to B17, for which the “Kd binding ratio ([Kd for CD28]/[Kd for CTLA-4])” value (“Kd binding ratio” below) was 1.6.

For B10, the “Kd binding ratio” value worked out at 5.1.

Take B12: the “Kd binding ratio” value turned out to be 0.8.

As for B13, the “Kd binding ratio” value came out at 6.8.

As for B14, the “Kd binding ratio” value was 2.7.

B15: the “Kd binding ratio” value worked out at 5.6.

B16: the “Kd binding ratio” value was found to be 4.7.

The target in the next assay is T1, OX40 chimera 1548: human OX40 with …. Nature of the assay: flow cytometry, 293-F transfectants. The procedure: The mouse/human chimeras were transiently transfected into FreeStyle 293-F cells (Invitrogen), incubated 48 hours in FreeStyle 293 expression medium (Invitrogen) 37 C, 8% CO₂, 135 rpm. The transfected cells were incubated with human OX40 antibodies, human OX40L (hOX40L, RnD Systems), mouse OX40L (mOX40L, RnD Systems) and controls for 30 min 4° C. and then detected with a-huIgG-PE (Jackson Immunoresearch) 30 min 4° C. Cells were analyzed with FACS Verse (BD Biosciences). Binding to the different chimeric constructs were calculated as relative (mean fluorescence intensity) MFI compared to the binding of the isotype control.
(In general: Flow cytometry measures light scatter and fluorescence of single cells or particles in a stream.)
In the case of B19, the “relative MFI vs isotype control” value was 1.1.

In another assay the target is T4, CTLA4-Fc (Fitzgerald, #30R-CD152). Nature of the assay: ELISA on coated CTLA4-Fc and CD28-Fc. The procedure:
96-well flat bottom high binding plates (Greiner, #655074) were coated with either CTLA4-Fc (Fitzgerald, #30R-CD152) or CD28-Fc (R&D systems, 342-CD) by incubating overnight at 4° C. […] The plates were washed again and sample or controls (serially diluted ⅕ from 200-0.001 μg/ml) were added to the wells. The samples were incubated for 1 h at room temperature and then washed. Detection antibody, goat-anti-human IgG Fcγ-HRP (Jackson, #109-035-098) was added and the plates were subsequently developed using SuperSignal Pico Chemiluminescent substrate (Thermo Scientific, #37069) and detected with an Envision reader (Perkin Elmer). EC50 values were calculated for both CTLA4 and CD28. The binding ratio (EC50 binding ratio=[EC50 for CD28]÷[EC50 for CTLA-4]) was calculated for each polypeptide and is shown in Table 1.1.
Turning to B17, the “EC50 binding ratio ([EC50 for CD28]/[EC50 for CTLA-4])” value (“EC50 binding ratio” below) worked out at 3.4.

Regarding B10, the “EC50 binding ratio” value is 7.7.

Turning to B11, the “EC50 binding ratio” value was determined as 3.5.

Take B12: the “EC50 binding ratio” value is 16.2.

Consider B13, for which the “EC50 binding ratio” value worked out at 12.2.

On to B14, for which the “EC50 binding ratio” value amounted to 17.2.

In the case of B15, the “EC50 binding ratio” value was found to be 30.5.

For B16, the “EC50 binding ratio” value was found to be 6.2.

For a further assay, the target named is T5, CD40 (Ancell) (UniProt P25942 21-193).
T5 construct: also called CD40-Fc (Ancell #504-820); not shown: Fc part, not described
T5 sequence (P25942 21-193 limits assumed): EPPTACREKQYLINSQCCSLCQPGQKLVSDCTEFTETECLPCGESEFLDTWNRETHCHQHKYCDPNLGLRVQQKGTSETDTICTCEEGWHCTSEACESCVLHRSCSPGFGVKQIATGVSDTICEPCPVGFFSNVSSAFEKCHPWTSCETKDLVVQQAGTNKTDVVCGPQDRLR
The experiment in a line: ELISA. In general terms: In an ELISA, binding on a coated surface is turned into a signal by an enzyme label.
Turning to B19, the binding result is recorded as “no binding”.

The target in a further assay is T2, murine OX40. Nature of the assay: ELISA.
On to B19, for which the binding result is “no binding”.

The next assay has as its target T6, recombinant human CD137-Fc (R&D #838-4B) (human, UniProt Q07011 24-186).
T6 construct: Bought; also called Human CD137 (R&D systems); CD137 (R&D Systems); not shown: Fc part, not described
Nature of the assay: ELISA.
For the molecule B19, the binding result is “no binding”.

By Kd is commonly meant the free concentration of one partner at which half of the binding sites on the other are occupied at equilibrium, for simple one-to-one binding. A low value points to higher affinity. A word on the koff: it is the first-order rate constant of dissociation. A lower koff goes with a long-lived complex. One may read the kon as the rate constant with which the complex forms. A lower kon goes with slow association.
